From doi:10.1101/027631

Molecular target: recombinant tubulin lacking the β-tubulin CTT, polymerised into microtubules (S. cerevisiae | human) (UniProt P09733)
Assay: TIRF microscopy of single fluorescent molecules on surface-held microtubules

reduction of the frequency of processive movement relative to WT MTs: 20%
Substance: dynein-dynactin-BicD2 (DDB) complex (from UniProt Q921C5 25-400; A0A287B8J2 1-1281)
